{
  "source": "patent EP3515493A1",
  "about": "(dated 2019)",
  "binders": {"B1": {"name": "Lym-1 (antibody, V domains shown)", "VH": "QLKESGPGLVAPSQSLSITCTISGFSLTSYGVHWVRQPPGKGLEWLVVIWSDGSTTYNSALKSRLSISKDNSKSQVFLKMNSLQTDDTAIYYCASHYGSTLAFASWGHGTLVTVSA", "VL": "DIQMTQSPASLSASVGETVTIICRASVNIYSYLAWYQQKQGKSPQLLVYNAKILAEGVPSRFSGSGSGTQFSLKINSLQPEDFGSYYCQHHYGTFTFGSGTKLEIK"}, "B2": {"name": "Lym-2 (antibody, V domains shown)", "VH": "EVQLEESGGGLVQPGGSMKLSCVASGFTFSNYWMNWVRQSPEKGLEWVAEIRFKSHNYATHFAESVKGRFTISRDDSKSSVYLQMNNLRAEDTGIYYCTRRIGNSDYDWWYFDVWGAGTSVTVSS", "VL": "DIVMTQSHKFMSTSVGDRVSVTCKASQNVGNNVAWYQQKPGQSPKVLIYSASYRYSGVPDRFTGSGSGTDFTLTISNVQSEDLAEYFCQQYNTYPFTFGSGTKLEIK"}},
  "key": {"[1]": {"biological_target": "HLA-DR, human (human)", "test": "Scatchard plot analysis, avidity constant on tumor cell line (Raji cells)"}, "[2]": {"biological_target": "HLA-DR, human (human)", "test": "Scatchard analysis, normal B cells (Table 11: tonsil lymphocytes) compared with Raji tumor cells"}, "[3]": {"biological_target": "HLA-DR, human (human)", "test": "Scatchard plot analysis, avidity constant on tonsil lymphocytes"}, "[4]": {"biological_target": "HLA-DR, human (human)", "test": "Scatchard plot analysis, avidity constant on tumor cell line (ARH-77 myeloma cells)"}, "[5]": {"biological_target": "HLA-DR, human (human)", "test": "Scatchard analysis, normal B cells (Table 11: tonsil lymphocytes) compared with ARH-77 tumor cells"}},
  "data": [
    {"binder": "B1", "values": [
      {"measurement": "Ka", "setting": "[1]", "result": "4.02e+08", "unit": "M⁻¹"},
      {"measurement": "fold decrease in binding affinity (normal B cells against tumor cells)", "setting": "[2]", "result": 4, "unit": "fold"},
      {"measurement": "Ka", "setting": "[3]", "result": "8.8e+07", "unit": "M⁻¹"}
    ]},
    {"binder": "B2", "values": [
      {"measurement": "Ka", "setting": "[4]", "result": "2.33e+08", "unit": "M⁻¹"},
      {"measurement": "Ka", "setting": "[3]", "result": "1.23e+08", "unit": "M⁻¹"},
      {"measurement": "fold decrease in binding affinity (normal B cells against tumor cells)", "setting": "[5]", "result": 2, "unit": "fold"}
    ]}
  ]
}
